Our source for the Kd values is article PMC10352136 (2023).

Assay [1] has as its target T1, SNX1-SAH^3A:SNX5-SAH^3A heterodimer (human, UniProt Q13596 1-522; Q9Y5X3 1-404). Briefly: ITC.
For assay [2], the target named is T2, SNX1-BT*:SNX5-BT* heterodimer (human, UniProt Q13596 1-522; Q9Y5X3 1-404). Briefly: ITC. A general note: In ITC the heat of successive injections is recorded.
Assay [3] concerns the target T1, SNX1-SAH^3A:SNX5-SAH^3A heterodimer. Briefly: ITC; representative single experiment.
The target of assay [4] is T2, SNX1-BT*:SNX5-BT* heterodimer. Briefly: ITC; representative single experiment.

T2 sequence (Q13596 whole entry, chain 1 of 2): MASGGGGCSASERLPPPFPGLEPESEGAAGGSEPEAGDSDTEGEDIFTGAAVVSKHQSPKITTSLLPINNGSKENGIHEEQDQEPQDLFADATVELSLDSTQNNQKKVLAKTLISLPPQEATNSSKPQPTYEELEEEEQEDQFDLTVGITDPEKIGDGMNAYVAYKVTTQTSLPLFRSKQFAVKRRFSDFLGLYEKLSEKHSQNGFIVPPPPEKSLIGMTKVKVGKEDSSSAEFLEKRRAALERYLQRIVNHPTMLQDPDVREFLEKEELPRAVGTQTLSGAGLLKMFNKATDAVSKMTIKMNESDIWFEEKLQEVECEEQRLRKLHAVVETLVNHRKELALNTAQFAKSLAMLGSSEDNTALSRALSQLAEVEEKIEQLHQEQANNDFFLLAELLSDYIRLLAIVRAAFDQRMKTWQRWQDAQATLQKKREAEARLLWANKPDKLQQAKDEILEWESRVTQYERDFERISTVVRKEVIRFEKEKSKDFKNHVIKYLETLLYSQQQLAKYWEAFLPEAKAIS
T2 sequence (Q9Y5X3 whole entry, chain 2 of 2): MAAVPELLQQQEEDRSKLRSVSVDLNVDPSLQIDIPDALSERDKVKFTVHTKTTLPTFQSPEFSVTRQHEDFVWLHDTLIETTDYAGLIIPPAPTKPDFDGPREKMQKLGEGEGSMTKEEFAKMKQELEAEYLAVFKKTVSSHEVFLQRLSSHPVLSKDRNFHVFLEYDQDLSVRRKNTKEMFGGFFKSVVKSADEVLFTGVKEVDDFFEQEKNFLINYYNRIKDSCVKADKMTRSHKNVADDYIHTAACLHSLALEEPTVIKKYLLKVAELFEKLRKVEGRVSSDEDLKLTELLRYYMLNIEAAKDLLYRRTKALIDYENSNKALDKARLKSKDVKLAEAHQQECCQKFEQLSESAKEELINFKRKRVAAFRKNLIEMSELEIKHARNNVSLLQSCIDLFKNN
T1 sequence (Q13596 whole entry, chain 1 of 2): as the sequence (Q13596 whole entry, chain 1 of 2) above
T1 sequence (Q9Y5X3 whole entry, chain 2 of 2): as the sequence (Q9Y5X3 whole entry, chain 2 of 2) above

In general, Kd refers to the equilibrium constant for the complex coming apart. A high value points to a looser complex. With SNVSYKYSKVNKEEETDENETEWLMEEIQ, the Kd in assay [1] was 5.06 µM; in assay [2] it was 10.4 µM; in assay [3] it was 4.64 µM; in assay [4] it was 9.96 µM.
